Assay results published in patent publication US20210070881A1 (DENALI THERAPEUTICS, published 2021).
Substitutions are numbered along the chain they refer to.

B1: 2H8.03 (antibody, human IgG1, V domains shown)
VH: EVQLQQSGAELVRPGTSVKLSCKASGYTFTSYWIHWVKQRPGQGLEWIGMIDPSDSYTKYNQKFKDKATLTVDTSSSTTYMHLSSLTSEDSAVYYCARSGVAFPYWGQRTLVTVSA
VL: DIVMTQSQKFMSKSVGDTVSVTCKASQDVGRNVAWYQQKSGQSPKSLIYSASHRYSGVPDRFTGSGSGTDFTLTISNVQSEDLADYFCQQYNSYPYTFGGGTRLEIK
notes: human IgG1/kappa; also called 2H8_HCvar3 + 2H8_LC
B2: 2H8.34 (antibody, human IgG1, V domains shown)
VH: EIQLQQSGTELVRPGTSVKLSCKASGYTFTNYWMHWVKQRPGQGLEWIGMIDPSAAYTNYNQNFKGKATLTVDTSSGTAYMQLSSLTSEDSAVYYCARSGVAFPYWGQGTTVTVSS
VL: B1 VL with V3Q, T18R, D28N, R31S
notes: human IgG1/kappa; also called 2H8_HCvar4 + 2H8_LCvar6
B3: 2H8.21 (antibody, human IgG1, V domains shown)
VH: B1 VH
VL: B1 VL with K13T, T18R, V21I, D28N, R31T, S40P, S46A, H53Y, D85E, R103K
notes: human IgG1/kappa; also called 2H8_HCvar3 + 2H8_LCvar4
B4: 2H8.30 (antibody, human IgG1, V domains shown)
VH: EVQLQQSGAELVRPGTSVKLSCKASGYTFNNYWMHWVKQRPGQGLEWIGMIDPSDDDIKNNQKFKGKATLTVDTSSSTAYMQLISLTSEDSAVYYCARSGVALPYWGQGTLVTVSA
VL: B1 VL with K13T, T18R, D28N, R31T, S46A, D85E, R103K
notes: human IgG1/kappa; also called 2H8_HCvar6 + 2H8_LCvar5
B5: 2H8.26 (antibody, human IgG1, V domains shown)
VH: B2 VH with I2V, S7P, V37I, A55D, A56T, N59K, Y60F, G77S, S84N
VL: B1 VL with K13T, T18R, D28N, R31T, S46A, D85E, R103K
notes: human IgG1/kappa; also called 2H8_HCvar2 + 2H8_LCvar5
B6: 2H8.27 (antibody, human IgG1, V domains shown)
VH: B1 VH
VL: B1 VL with K13T, T18R, D28N, R31T, S46A, D85E, R103K
notes: human IgG1/kappa; also called 2H8_HCvar3 + 2H8_LCvar5
B7: 2H8.16 (antibody, human IgG1, V domains shown)
VH: B2 VH
VL: B1 VL with V3Q, K13T, V15I, T18R, D28N, R31T, S40P, R54W, D85E, R103K
notes: human IgG1/kappa; also called 2H8_HCvar4 + 2H8_LCvar3
B8: 2H8.15 (antibody, human IgG1, V domains shown)
VH: B1 VH
VL: B1 VL with V3Q, K13T, V15I, T18R, D28N, R31T, S40P, R54W, D85E, R103K
notes: human IgG1/kappa; also called 2H8_HCvar3 + 2H8_LCvar3
B9: 2H8.40 (antibody, human IgG1, V domains shown)
VH: B2 VH
VL: B1 VL with V3L, K13T, T18R, D28N, K39I, S46P, A84V, D85E, Y86F, R103K
notes: human IgG1/kappa; also called 2H8_HCvar4 + 2H8_LCvar7
B10: 2H8.29 (antibody, human IgG1, V domains shown)
VH: EVQLQQPGAEVVRPGTSVKLSCKASGYTFTNYWMHWVKQRPGQGLEWIGMIDPSDNYTKYNQKLKGKATLTVDTSSSTANMHVNSLTSEDSAVYFCARSGVAFPYWGQGTLVTVSA
VL: B1 VL with K13T, T18R, D28N, R31T, S46A, D85E, R103K
notes: human IgG1/kappa; also called 2H8_HCvar5 + 2H8_LCvar5
B11: 2H8.09 (antibody, human IgG1, V domains shown)
VH: B1 VH
VL: B1 VL with K13T, T18R, D28N, R31T, S40P, S46A, D85E, P95M, R103K
notes: human IgG1/kappa; also called 2H8_HCvar3 + 2H8_LCvar2
B12: 2H8.20 (antibody, human IgG1, V domains shown)
VH: B2 VH with I2V, S7P, V37I, A55D, A56T, N59K, Y60F, G77S, S84N
VL: B1 VL with K13T, T18R, V21I, D28N, R31T, S40P, S46A, H53Y, D85E, R103K
notes: human IgG1/kappa; also called 2H8_HCvar2 + 2H8_LCvar4
B13: 2H8.22 (antibody, human IgG1, V domains shown)
VH: B2 VH
VL: B1 VL with K13T, T18R, V21I, D28N, R31T, S40P, S46A, H53Y, D85E, R103K
notes: human IgG1/kappa; also called 2H8_HCvar4 + 2H8_LCvar4
B14: 2H8.12 (antibody, human IgG1, V domains shown)
VH: B4 VH
VL: B1 VL with K13T, T18R, D28N, R31T, S40P, S46A, D85E, P95M, R103K
notes: human IgG1/kappa; also called 2H8_HCvar6 + 2H8_LCvar2
B15: 2H8.36 (antibody, human IgG1, V domains shown)
VH: B4 VH
VL: B1 VL with V3Q, T18R, D28N, R31S
notes: human IgG1/kappa; also called 2H8_HCvar6 + 2H8_LCvar6
B16: 2H8.24 (antibody, human IgG1, V domains shown)
VH: B4 VH
VL: B1 VL with K13T, T18R, V21I, D28N, R31T, S40P, S46A, H53Y, D85E, R103K
notes: human IgG1/kappa; also called 2H8_HCvar6 + 2H8_LCvar4
B17: 2H8.14 (antibody, human IgG1, V domains shown)
VH: B2 VH with I2V, S7P, V37I, A55D, A56T, N59K, Y60F, G77S, S84N
VL: B1 VL with V3Q, K13T, V15I, T18R, D28N, R31T, S40P, R54W, D85E, R103K
notes: human IgG1/kappa; also called 2H8_HCvar2 + 2H8_LCvar3
B18: 2H8.33 (antibody, human IgG1, V domains shown)
VH: B1 VH
VL: B1 VL with V3Q, T18R, D28N, R31S
notes: human IgG1/kappa; also called 2H8_HCvar3 + 2H8_LCvar6
B19: 2H8.19 (antibody, human IgG1, V domains shown)
VH: B1 VH with A9P, R13K, T16A, S31N, Y32F, V37L, D66A
VL: B1 VL with K13T, T18R, V21I, D28N, R31T, S40P, S46A, H53Y, D85E, R103K
notes: human IgG1/kappa; also called 2H8_HC + 2H8_LCvar4
B20: 2H8.28 (antibody, human IgG1, V domains shown)
VH: B2 VH
VL: B1 VL with K13T, T18R, D28N, R31T, S46A, D85E, R103K
notes: human IgG1/kappa; also called 2H8_HCvar4 + 2H8_LCvar5
B21: 2H8.07 (antibody, human IgG1, V domains shown)
VH: B1 VH with A9P, R13K, T16A, S31N, Y32F, V37L, D66A
VL: B1 VL with K13T, T18R, D28N, R31T, S40P, S46A, D85E, P95M, R103K
notes: human IgG1/kappa; also called 2H8_HC + 2H8_LCvar2
B22: 2H8.23 (antibody, human IgG1, V domains shown)
VH: B10 VH
VL: B1 VL with K13T, T18R, V21I, D28N, R31T, S40P, S46A, H53Y, D85E, R103K
notes: human IgG1/kappa; also called 2H8_HCvar5 + 2H8_LCvar4
B23: 2H8.17 (antibody, human IgG1, V domains shown)
VH: B10 VH
VL: B1 VL with V3Q, K13T, V15I, T18R, D28N, R31T, S40P, R54W, D85E, R103K
notes: human IgG1/kappa; also called 2H8_HCvar5 + 2H8_LCvar3
B24: 2H8.13 (antibody, human IgG1, V domains shown)
VH: B1 VH with A9P, R13K, T16A, S31N, Y32F, V37L, D66A
VL: B1 VL with V3Q, K13T, V15I, T18R, D28N, R31T, S40P, R54W, D85E, R103K
notes: human IgG1/kappa; also called 2H8_HC + 2H8_LCvar3
B25: 2H8.18 (antibody, human IgG1, V domains shown)
VH: B4 VH
VL: B1 VL with V3Q, K13T, V15I, T18R, D28N, R31T, S40P, R54W, D85E, R103K
notes: human IgG1/kappa; also called 2H8_HCvar6 + 2H8_LCvar3
B26: 2H8.08 (antibody, human IgG1, V domains shown)
VH: B2 VH with I2V, S7P, V37I, A55D, A56T, N59K, Y60F, G77S, S84N
VL: B1 VL with K13T, T18R, D28N, R31T, S40P, S46A, D85E, P95M, R103K
notes: human IgG1/kappa; also called 2H8_HCvar2 + 2H8_LCvar2
B27: 2H8.10 (antibody, human IgG1, V domains shown)
VH: B2 VH
VL: B1 VL with K13T, T18R, D28N, R31T, S40P, S46A, D85E, P95M, R103K
notes: human IgG1/kappa; also called 2H8_HCvar4 + 2H8_LCvar2
B28: 2H8.06 (antibody, human IgG1, V domains shown)
VH: B4 VH
VL: B1 VL
notes: human IgG1/kappa; also called 2H8_HCvar6 + 2H8_LC
B29: 2H8.38 (antibody, human IgG1, V domains shown)
VH: B2 VH with I2V, S7P, V37I, A55D, A56T, N59K, Y60F, G77S, S84N
VL: B1 VL with V3L, K13T, T18R, D28N, K39I, S46P, A84V, D85E, Y86F, R103K
notes: human IgG1/kappa; also called 2H8_HCvar2 + 2H8_LCvar7
B30: 2H8.11 (antibody, human IgG1, V domains shown)
VH: B10 VH
VL: B1 VL with K13T, T18R, D28N, R31T, S40P, S46A, D85E, P95M, R103K
notes: human IgG1/kappa; also called 2H8_HCvar5 + 2H8_LCvar2
B31: 2H8.25 (antibody, human IgG1, V domains shown)
VH: B1 VH with A9P, R13K, T16A, S31N, Y32F, V37L, D66A
VL: B1 VL with K13T, T18R, D28N, R31T, S46A, D85E, R103K
notes: human IgG1/kappa; also called 2H8_HC + 2H8_LCvar5
B32: hu2H8v1 (antibody, V domains shown)
VH: QVQLVQSGAEVKKPGASVKVSCKASGYTFTNFWIHWVRQAPGQGLEWMGMIDPSDSYTKYNQKFKARVTMTRDTSTSTTYMELSSLRSEDTAVYYCARSGVAFPYWGQGTLVTVSS
VL: DIQMTQSPSSLSASVGDRVTITCKASQDVGRNVAWYQQKPGKAPKLLIYSASHRYSGVPSRFSGSGSGTDFTLTISSLQPEDFATYYCQQYNSYPYTFGQGTKVEIK
notes: humanized; also called hu2H8_HC1 + hu2H8_LC1
B33: hu2H8v3 (antibody, V domains shown)
VH: B32 VH with V37L, R72V
VL: B32 VL
notes: humanized; also called hu2H8_HC3 + hu2H8_LC1
B34: hu2H8v2 (antibody, V domains shown)
VH: B32 VH with V37L
VL: B32 VL
notes: humanized; also called hu2H8_HC2 + hu2H8_LC1

molecular target: T1, recombinant BACE1 (BACE1 extracellular domain, R&D Systems Cat#931-AS) (UniProt P56817 22-457); experiment: SPR Biacore
T1 construct: extracellular domain; also called BACE1 extracellular domain protein
T1 sequence (P56817 22-457): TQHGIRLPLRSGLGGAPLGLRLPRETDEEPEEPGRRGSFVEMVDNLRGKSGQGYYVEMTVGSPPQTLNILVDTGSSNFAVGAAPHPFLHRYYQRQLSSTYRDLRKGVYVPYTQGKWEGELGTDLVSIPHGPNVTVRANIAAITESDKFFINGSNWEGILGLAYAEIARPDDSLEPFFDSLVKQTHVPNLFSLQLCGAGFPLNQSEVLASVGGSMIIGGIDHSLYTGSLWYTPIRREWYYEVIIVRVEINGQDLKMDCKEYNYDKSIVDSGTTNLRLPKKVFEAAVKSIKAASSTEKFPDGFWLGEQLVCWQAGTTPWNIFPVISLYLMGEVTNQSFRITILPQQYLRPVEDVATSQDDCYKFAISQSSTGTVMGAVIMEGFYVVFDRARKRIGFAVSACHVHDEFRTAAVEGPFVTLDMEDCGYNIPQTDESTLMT

Kd [nM] | koff [s⁻¹] | kon [M⁻¹ s⁻¹] | Binder
17.9 | 0.000289 | 16100 | B1
25.5 | 0.000425 | 16700 | B2
90.5 | 0.00104 | 11400 | B3
21.2 | 0.000274 | 12900 | B4
18.3 | 0.000312 | 17000 | B5
17 | 0.00024 | 14100 | B6
37.8 | 0.000631 | 16700 | B7
22.8 | 0.000278 | 12200 | B8
19.1 | 0.000456 | 23900 | B9
18.6 | 0.000255 | 13700 | B10
18.3 | 0.000228 | 12500 | B11
93.4 | 0.00147 | 15800 | B12
304 | 0.0109 | 35900 | B13
171 | 0.00166 | 9680 | B14
23.5 | 0.000273 | 11600 | B15
183 | 0.00243 | 13300 | B16

Kd [nM] | koff [s⁻¹] | kon [M⁻¹ s⁻¹] | Binder
19.2 | 0.000291 | 15200 | B17
11.8 | 0.000171 | 14500 | B18
42.5 | 0.000674 | 15900 | B19
34 | 0.00062 | 18200 | B20
20 | 0.000294 | 14700 | B21
79.4 | 0.00101 | 12700 | B22
19 | 0.000259 | 13600 | B23
19.8 | 0.000308 | 15500 | B24
32.4 | 0.00039 | 12000 | B25
20.9 | 0.000299 | 14300 | B26
62 | 0.000878 | 14200 | B27
16 | 0.000264 | 16500 | B28
17.8 | 0.000329 | 18500 | B29
17.7 | 0.000235 | 13300 | B30
15.2 | 0.000251 | 16500 | B31

molecular target: T1, recombinant BACE1 (BACE1 extracellular …); experiment: SPR Biacore; remark: another data set of the same source

Kd [nM] | Binder
135 | B32
172 | B33
185 | B34
